Reference: publication PMC9834408, “The SPOC domain is a phosphoserine binding module that bridges transcription machinery with co- and post-transcriptional regulators” (Nature Communications, 2023)
Values belong to the binder of their own block, whether it stands above or below them.

Biological target: 2×S2P CTD diheptapeptide
Test: fluorescence polarisation; fluorescence anisotropy; 90 nM labelled peptide (Atto-488 on CTD peptides, FAM on NCoR and FMR1 peptides) titrated with increasing concentrations of SPOC domain; 20 °C; 25 mM Tris-Cl pH 7.4, 25 mM NaCl, 1 mM DTT; three independent dilution series

Kd: 22.4 µM
B1: DIDO SPOC R1096A (domain or fragment)
chain: TLFLSRLSTIWKGFINMQSVAKFVTKAYPVSGCFDYLSEDLPDTIHIGGAIAPKTVWDYVGKLKSSVSKELCLIRFHPATEEEEVAYISLYSYFSSRGRFGVVANNNRHVKDLYLIPLSAQDPVPSKLLPFEGPGLESPRPNIILGLVICQKIKRPANS

Kd: 8.4 µM
B2: PHF3 SPOC R1248A (domain or fragment)
chain: STFLARLNFIWKGFINMPSVAKFVTKAYPVSGSPEYLTEDLPDSIQVGGAISPQTVWDYVEKIKASGTKEICVVRFTPVTEEDQISYTLLFAYFSSRKRYGVAANNMKQVKDMYLIPLGATDKIPHPLVPFDGPGLELHRPNLLLGLIIRQKLKRQHS
